We go through two molecules from paper PMC10967632, “Anti-CD99 Antibody Therapy Triggers Macrophage-Dependent Ewing Cell Death In Vitro and Myeloid Cell Recruitment In Vivo” (Antibodies, 2024).

Assay [1] addresses T1, CD99 (or MIC2), 32 kDa type I membrane glycoprotein, on cells (Homo sapiens, UniProt P14209).
T1 construct: CD99 (MIC2), human, endogenous on the cell surface; also called Ewing CD99; macrophage CD99; source: endogenous, on human Ewing sarcoma cell lines (A673, TC32, CADO-ES1, TC71, TTC466); endogenous, on monocytes derived from human PBMCs
As to the kind of experiment: flow cytometry on cells; Ewing sarcoma cells incubated with anti-CD99 IgG1 (2 µg/mL; NOA1 10 µg/mL; NOA2 also titrated) for one hour at 4 °C, then FITC-conjugated mouse anti-human IgG; CD99-negative Kelly neuroblastoma cells as negative control. Particulars: one partner purified.

The target of assay [2] is T2, Human His-tagged PILRα, extracellular domain (human, UniProt Q9UKJ1 20-197).
T2 construct: PILRα, human, extracellular domain; Band at 55 kDa on SDS-PAGE; also called human PILRα; source: Expi293F, transfected (pcDNA3.4), purified from the supernatant (HisPur Ni-NTA column)
T2 sequence (Q9UKJ1 20-197): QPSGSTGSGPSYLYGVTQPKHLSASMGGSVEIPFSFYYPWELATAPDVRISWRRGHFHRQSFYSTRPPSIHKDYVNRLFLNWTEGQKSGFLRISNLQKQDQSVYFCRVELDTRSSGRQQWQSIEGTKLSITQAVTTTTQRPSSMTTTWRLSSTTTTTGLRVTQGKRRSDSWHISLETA
As to the kind of experiment: ELISA; plate coated with 2 µg/mL human CD99, PILRα at 0.25 to 5 µg/mL, detected with an anti-PILRα antibody and HRP-bound secondary. Particulars: both partners purified. On the technique in general: ELISA stands for enzyme-linked immunosorbent assay.

B1: NOA3, anti-CD99 monoclonal antibody (IgG1) (antibody, V domains shown)
VH: EVQLVQSGAEVKKPGESLKIACKGSGYSFSKYWIGWVRQMPGKGLEWMGIIYPGDSDTRYSPSFQGQVTISVDTSISTAYLQWSSLKASDTAIYYCARHLRNFGDAFDIWGQGTTVTVSS
VL: SYELTQPPSVSVSPGQTARITCSGDALPKQYAYWYQQKPGQSPVLVIYQDSKRPSGIPERFSGSNSGNTATLTISGTQAMDEADYYCQAWDSSTAFGGGTKLTVL
notes: constant region IgG1; IgG1; isolated by phage display
On to B1, for which the binding result in assay [1] is “binds”.

B2: soluble human CD99 (coated on the ELISA plate) (natural protein, UniProt P14209 23-122, looked up)
chain: DGGFDLSDALPDNENKKPTAIPKKPSAGDDFDLGDAVVDGENDDPRPPNPPKPMPNPNPNHPSSSGSFSDADLADGVSGGEGKGGSDGGGSHRKEGEEAD
notes: human CD99, soluble; May be the same CD99-Fc (G&P Biosciences) as m6
Consider B2, for which, in assay [2], the binding result is “binds”.
